Measured values: patent publication US20250019435A1 (ALBERT EINSTEIN COLLEGE OF MEDICINE, published 2025)
Substitutions are numbered along the chain they refer to. Names and notes keep the numbering of the source.

T1: PVR-Ig fusion protein (UniProt P15151 27-343)
T1 construct: Bought (R&D Systems); also called PVR-Ig protein; not shown: Ig part, detected with anti-human IgG Fc
T1 sequence (looked up): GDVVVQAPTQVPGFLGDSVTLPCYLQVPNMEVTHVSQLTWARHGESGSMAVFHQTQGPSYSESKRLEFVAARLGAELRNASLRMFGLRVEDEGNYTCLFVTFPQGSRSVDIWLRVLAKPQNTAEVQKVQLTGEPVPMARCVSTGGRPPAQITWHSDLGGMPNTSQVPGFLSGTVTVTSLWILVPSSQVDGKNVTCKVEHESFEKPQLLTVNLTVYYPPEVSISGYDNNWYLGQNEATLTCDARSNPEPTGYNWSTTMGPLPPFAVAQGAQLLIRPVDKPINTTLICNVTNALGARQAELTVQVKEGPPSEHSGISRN

T2: PVR expressed on transduced cells (PVR-YFP) (UniProt P15151 21-417)
T2 construct: whole, on cells; On NIH 3T3 or Raji cells; also called PVR/3T3; PVR-YFP/3T3; not shown: YFP ('PVR-YFP ... fusion protein')
T2 sequence (looked up): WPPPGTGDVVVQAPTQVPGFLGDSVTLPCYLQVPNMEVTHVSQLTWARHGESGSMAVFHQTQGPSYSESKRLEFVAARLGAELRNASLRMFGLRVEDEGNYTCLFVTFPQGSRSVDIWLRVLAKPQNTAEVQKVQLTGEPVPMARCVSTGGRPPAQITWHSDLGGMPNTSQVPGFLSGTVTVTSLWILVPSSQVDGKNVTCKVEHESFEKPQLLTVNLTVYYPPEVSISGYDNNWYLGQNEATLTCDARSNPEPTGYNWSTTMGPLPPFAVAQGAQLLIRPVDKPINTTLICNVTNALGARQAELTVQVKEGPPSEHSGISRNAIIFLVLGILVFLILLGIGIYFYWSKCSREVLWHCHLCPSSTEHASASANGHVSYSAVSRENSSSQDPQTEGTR

B1: D0-deleted KIR2DL5 expressed on 3T3 cells (receptor)
chain: GLFGKPSLSAQPGPTVRTGENVTLSCSSRSSFDMYHLSREGRAHEPRLPAVPSVNGTFQADFPLGPATHGGTYTCFGSLHDSPYEWSDPSDPLLVSVTGNSSSSSSSPTEPSSKTGIRRHLHILIGTSVAIILFIILFFFLLHCCCSNKKNAAVMDQEPAGDRTVNREDSDDQDPQEVTYAQLDHCVFTQTKITSPSQRPKTPPTDTTMYMELPNAKPRSLSPAHKHHSQALRGSSRETTALSQNRVASSHVPAAGI
notes: the signal peptide 1-21 is left out; also called KIR2DL5 dD0; DO-deleted KIR2DL5
B2: anti-KIR2DL5 mAb clone B33C12 (antibody, V domains shown)
VH: QVQLQQSGAELVKPGASVKMSCKAFGYTFTSFPIEWMKQNHGKSLEWIGNFHPSNDDTKYNEKFNGKAKLTAETSSKTVYLELSRLTSDDSAVYYCARGSDYSFALDYWGQGTSVTVSS
VL: GIVLTQSPASLAVSLGQRATISCRASESVDSYGYSFMHWYQQKPGQPPKLLIYRASNLKSGIPARFSGSGSRTDFTLTINPVEADDVATYYCQQSNEDPWTFGGGTKLEIK
notes: also called B33C12 (IgG2a, κ)
B3: anti-KIR2DL5 mAb clone B11B4 (antibody, V domains shown)
VH: B2 VH with A9G, S54Y, S91C, A92S, A105G
VL: GIVLTQSPASLVVSLGQRATISCRASESVDSYGYSFMHWYQQKPGQPPKLLIYRASNLKSGIPARFSGSGCRTDFTLTINPVEADDVATYYCQQSNEDPWTFGGGTKAGN
notes: also called B11B4 (IgG2b, κ)
B4: Y328F (receptor)
receptor chain: HEGGQDKPLLSAWPSAVVPRGGHVTLLCRSRLGFTIFSLYKEDGVPVPELYNKIFWKSILMGPVTPAHAGTYRCRGSHPRSPIEWSAPSNPLVIVVTGLFGKPSLSAQPGPTVRTGENVTLSCSSRSSFDMYHLSREGRAHEPRLPAVPSVNGTFQADFPLGPATHGGTYTCFGSLHDSPYEWSDPSDPLLVSVTGNSSSSSSSPTEPSSKTGIRRHLHILIGTSVAIILFIILFFFLLHCCCSNKKNAAVMDQEPAGDRTVNREDSDDQDPQEVTYAQLDHCVFTQTKITSPSQRPKTPPTDTTMFMELPNAKPRSLSPAHKHHSQALRGSSRETTALSQNRVASSHVPAAGI
notes: also called KIR2DL5 Y328F (ITSM mutant) on transduced primary NK cells
B5: D2-deleted KIR2DL5 expressed on 3T3 cells (receptor)
chain: HEGGQDKPLLSAWPSAVVPRGGHVTLLCRSRLGFTIFSLYKEDGVPVPELYNKIFWKSILMGPVTPAHAGTYRCRGSHPRSPIEWSAPSNPLVIVVTGNSSSSSSSPTEPSSKTGIRRHLHILIGTSVAIILFIILFFFLLHCCCSNKKNAAVMDQEPAGDRTVNREDSDDQDPQEVTYAQLDHCVFTQTKITSPSQRPKTPPTDTTMYMELPNAKPRSLSPAHKHHSQALRGSSRETTALSQNRVASSHVPAAGI
notes: also called KIR2DL5 dD2
B6: anti-KIR2DL5 mAb clone B2A18 (antibody, V domains shown)
VH: QIQLVQSGPEVKKPGETVKISCKASGYTFTKYGMNWVKQAPGKGLKWMGWINTNTGESTYAEDFKGRFAFSLETSANTAFLQINNLKNEDTAAYFCARWGPYGSSLYYGMDYWGQGTSVTVS
VL: DIQMTQSSSSFSISLGDRVTITCRASEDLYNRLAWYQQKPGNAPRLLISGATSLETGVPSRFSGSGSGKDFTLSIPSVQTEDVGTYYCQQYRYTPWTFGGGTTLN
notes: also called B2A18, (IgG1, κ)

Columns and labels:
PVR-Ig fusion protein = target: T1, PVR-Ig fusion protein; test: flow cytometry, PVR-Ig on transduced 3T3 cells
Description: FIG. 10A-E: Allelic polymorphism affected PVR binding of KIR2DL5. (A) Flow cytometric analysis of PVR-Ig or CD112-Ig (open) or control hIg (shaded) binding to KIR2DL5/3T3. (B) Flow cytometric analysis of PVR-Ig binding to KIR2DL5/3T3 in the presence of increasing concentrations of F8B30. (C) KIR2DL5 bound to different sites of PVR from other receptors. PVR-Ig protein was preincubated with indicated His-tagged protein and then stained KIR2DL5/3T3 cells. […] (D) Flow cytometric analysis of PVR-Ig (open) or control hIg (shaded) binding on 3T3 cells expressing WT, DO-deleted, or D2-deleted KIR2DL5. Parental 3T3 cells were used as a negative control. (E) Flow cytometric analysis of PVR-Ig or control hIg (shaded) binding on 3T3 cells expressing different KIR2DL5 alleles. In A-E, data are representative of 2 independent experiments.
Fusion protein cell binding assays. PVR-Ig, CD112-Ig, or hIgG (R&D Systems) was incubated with corresponding 3T3 cells on ice for 45 minutes, followed by incubation with APC- or PE-conjugated anti-human IgG Fc antibody (1:100; clone HP6017, BioLegend) on ice for 30 minutes. Cells were then acquired on an LSR II flow cytometer (BD Biosciences). In the anti-KIR2DL5 mAb blocking assay, KIR2DL5/3T3 cells were preincubated with a serial concentration of anti-KIR2DL5 mAb F8B30 or mIgG1 on ice for 30 minutes. […]

[1] = target: T3, KIR2DL5A*005 allele expressed on 3T3 cells (human); test: flow cytometry, 3T3 cells expressing KIR2DL5 alleles, mAb 5 µg/ml
T3 construct: also called 2D5A*005

[2] = target: T4, KIR2DL5-Ig fusion protein (KIR2DL5 extracellular domain fused to human IgG1 Fc) (human, UniProt Q8N109 22-240); test: BLI, Octet RED96; KIR2DL5-Ig captured on anti-human Fc biosensors, mAb in solution; global 1:1 fit
T4 construct: A D0-only fusion (H22-A128) also exists; also called KIR2DL5-human Ig fusion protein; KIR2DL5 DO-D2-Ig; not shown: human IgG1 Fc tag
Description: Biolayer interferometry. The affinities of anti-KIR2DL5 mAbs were analyzed by biolayer interferometry using an Octet RED96 system (ForteBio, Pall LLC). Briefly, anti-human Fc capture biosensors (ForteBio, Pall LLC) were preloaded with KIR2DL5-Ig and then dipped into a solution containing mAb at 2-fold serial dilutions (from 200 to 1.5 μg/mL). Data were analyzed using Forte Pall (Port Washington, New York, USA) software 9.0. The global data fitting to a 1:1 binding model was used to estimate values for the Kₒₙ (association rate constant), Koff (dissociation rate constant), and KD (equilibrium dissociation constant).

[3] = target: B1; test: flow cytometry, transduced 3T3 cells
Text: FIG. 15A-15E: Characterization of anti-KIR2DL5 specific monoclonal antibodies. (Related to FIGS. 8A-8D). (A) The protein sequence of KIR2DL5. The extracellular domain of KIR2DL5 was composed of tandem DO-D2 domains. The cytoplasmic tail of KIR2DL5 contained an immunoreceptor tyrosine-based inhibition motif (ITIM) and immunoreceptor tyrosine-based switch motif (ITSM). Domains were predicted and annotated based on UniProtKB (Q8N109). (B) The specificity of anti-KIR2DL5 mAbs. 3T3 cells transduced with indicated KIR family members were stained with 5 μg/ml of indicated anti-KIR2DL5 mAbs (open) or mIgG1 (shaded). (C, D) The affinity of anti-KIR2DL5 mAbs. C: Kinetic binding curves for F8B30 and B19C11. D: Data were acquired from kinetic binding curves detected by the Octet Red96 BLI instrument for indicated clones. (E) 3T3 cells transduced with DO-deleted (KIR2DL5 dD0) or D2-deleted KIR2DL5 (KIR2DL5 dD2) were stained with 5 μg/ml of indicated anti-KIR2DL5 mAbs. In B-E, data are representative of three independent experiments.

[4] = target: T2, PVR expressed on transduced cells …; test: confocal imaging of conjugates of transduced primary NK cells with PVR-YFP/Raji cells
Description: The KIR2DL5⁻ primary NK cells were transduced with WT KIR2DL5 or the indicated mutants, and then examined for protein expression with F8B30 (open) or mIgG1 (shaded). NC, negative control. Data are representative of 2 independent experiments. (B and C) Transduced primary NK cells were treated with (+) or without (−) pervanadate (VO₄) for 5 minutes. Cell lysates were immunoprecipitated with anti-KIR2DL5 antibodies. Phospho-tyrosine (4G10), SHP-1, SHP-2, and total KIR2DL5 were detected by immunoblots (B). Quantification of p-Tyr, SHP-1, and SHP-2 association with WT or mutant KIR2DL5 in VO₄-treated NK cells (C). WCL, whole-cell lysates. (D) Representative imaging of cell conjugates acquired upon the indicated transduced primary NK and PVR/Raji cell contact followed by staining with anti-KIR2DL5 mAb and DAPI. Scale bars: […]. (E) Lysis of scramble control or PVR^KO A427 (top) and Jurkat (bottom) by WT or mutant KIR2DL5-transduced primary NK cells at the indicated E/T ratios. Data are mean for duplicate measurements and representative of 3 independent experiments with 3 different donors. In A, and B, data are representative of 3 independent experiments. *P<0.05, **P<0.01, ***P<0.001, ****P<0.0001, by 1-way ANOVA (C), or paired Student's t test (D).
NK-Raji conjugation assay. […] Cell mixtures were then loaded onto poly-L-lysine-precoated slides and fixed with 4% formaldehyde at RT for 15 minutes. After blocking with 5% normal goat serum at RT for 1 hour, cells were stained with 20 µg/mL anti-KIR2DL5 antibodies (a mixture of 8 homemade clones) at 4° C. overnight and then with goat anti-mIgG (H+L) Alexa Flour 647 (Invitrogen) at RT for 2 hours. The cells were permeabilized by 0.1% Triton X-100 at RT for 15 minutes and stained with Alexa Flour Plus 405 Phalloidin (Life Technologies) for 1 hour at RT. The slides were then mounted by Gold Antifade Mountant without DAPI (Life Technologies). The mean pixel intensity of synapse and non-synapse was respectively measured and statistically analyzed. Images were acquired by Leica SP8 confocal microscope and processed by ImageJ (NIH).

| binding result (PVR-Ig fusion protein) | binding result [1] | Kd [2] | koff [2] | kon [2] | binding result [3] | binding result [4] | Binder |
| --- | --- | --- | --- | --- | --- | --- | --- |
| no binding | – | – | – | – | – | – | B1 |
| – | binds | 0.359 nM | 0.000299 s⁻¹ | 835000 M⁻¹ s⁻¹ | no binding (tested: 5 µg/ml) | – | B2 |
| – | – | 0.245 nM | 0.000202 s⁻¹ | 825000 M⁻¹ s⁻¹ | no binding (tested: 5 µg/ml) | – | B3 |
| – | – | – | – | – | – | binds | B4 |
| no binding | – | – | – | – | – | – | B5 |
| – | binds | 0.104 nM | 0.000175 s⁻¹ | 1.68e+06 M⁻¹ s⁻¹ | no binding (tested: 5 µg/ml) | – | B6 |
